Numbering of substitutions follows the chain as printed.
B1: 19F6-Hu35V1 (antibody, human IgG1, kappa, V domains shown)
VH: QVQLQESGPGLVKPSQTLSLTCTVSGYSITSDYAWNWIRQFPGKGLEWIGYISYSGSIRYNPSLKSRVTISRDTSKNQFSLKLSSVTAADTAVYYCARGEITYYFDYWGQGTLVTVSS
VL: ETTLTQSPAFMSATPGDKVTISCKASTSIDDDMNWYQQKPGEPPKLIISEGNTLRPGIPPRFSSSGYGTDFTFTINKIKSEDAATYYCLQSNDLPLTFGQGTKLEIKR
notes: humanized, human IgG1 / kappa
B2: 3D8-HuC24 (antibody, human IgG1, kappa, V domains shown)
VH: EVQLVESGGGLVQPGGSLRLSCAASGFTFSSYAMSWVRQAPGKGLEWVASINSGGSTYYPDSVKGRFTISRDNAKNSLYLQMNSLRAEDTAVYYCARVNYYGYGDYAMDYWGQGTLVTVSS
VL: DIQMTQSPSSLSASVGDRVTITCQASQDISNYLTWFQQKPGKSPKTLIHRANRLVTGVPSRFSGSGSGTDFTFTISSLQPEDIATYYCLQYDEFPYTFGGGTKVEIKR
notes: humanized, human IgG1 / kappa
B3: 38F8-Hu57 (antibody, human IgG1, kappa, V domains shown)
VH: EVQLVESGGGLVQPGGSLRLSCAASGFTFSNYAMSWVRQAPEKRLEWVASISSGGPTYYPDSVKGRFTVSRDNSKNTLYLQMNSLRAEDTAVYYCARGYRYDVNWYFDVWGAGTMVTVSS
VL: B2 VL with F71Y, T85I
notes: humanized, human IgG1 / kappa
B4: 19F6-Hu14 (antibody, human IgG1, kappa, V domains shown)
VH: B1 VH with Q16E, S25T, F41P, I49M, N61K, S66D, V68I
VL: DIQMTQSPSSLSASVGDRVTITCQTSTDIDDDLNWYQQKPGKPPKLLISEGNTLETGVPSRFSGSGSGTDFTFTISSLQPEDIADYYCLQSNDLPLTFGAGTKLEIKR
notes: humanized, human IgG1 / kappa
B5: 19F6-Hu21 (antibody, human IgG1, kappa, V domains shown)
VH: B1 VH with Q16E, F41P, I49M, S66D, V68I
VL: DIQMTQSPSSLSASVGDRVTITCITTTDIDDDMNWYQQKPGKAPKLLISEGNTLRPGVPSRFSGSGYGTDFTLTISSLQPEDFATYYCLQSNDLPLTFGQGTKLEIKR
notes: humanized, human IgG1 / kappa
B6: 19F6-Hu12 (antibody, human IgG1, kappa, V domains shown)
VH: B1 VH with Q16E, S25T, F41P, I49M, N61K, S66D, V68I
VL: B5 VL with R55Q, P56S
notes: humanized, human IgG1 / kappa
B7: 19F6-Hu23 (antibody, human IgG1, kappa, V domains shown)
VH: B1 VH with Q16E, F41P, I49M, S66D, V68I
VL: B5 VL with I24R, T25A, T26S, S49Y, R55Q, P56S
notes: humanized, human IgG1 / kappa
B8: 19F6-Hu13 (antibody, human IgG1, kappa, V domains shown)
VH: B1 VH with Q16E, S25T, F41P, I49M, N61K, S66D, V68I
VL: B5 VL with I24R, T25A, T26S, S49Y, R55Q, P56S
notes: humanized, human IgG1 / kappa
B9: 19F6-Hu24 (antibody, human IgG1, kappa, V domains shown)
VH: B1 VH with Q16E, F41P, I49M, S66D, V68I
VL: B4 VL
notes: humanized, human IgG1 / kappa
B10: 19F6-Hu32 (antibody, human IgG1, kappa, V domains shown)
VH: B1 VH
VL: B5 VL with R55Q, P56S
notes: humanized, human IgG1 / kappa
B11: 19F6-Hu31 (antibody, human IgG1, kappa, V domains shown)
VH: B1 VH
VL: B5 VL
notes: humanized, human IgG1 / kappa
B12: 19F6-Hu33 (antibody, human IgG1, kappa, V domains shown)
VH: B1 VH
VL: B5 VL with I24R, T25A, T26S, S49Y, R55Q, P56S
notes: humanized, human IgG1 / kappa
B13: 19F6-Chi (antibody, human IgG1, kappa, V domains shown)
VH: DVQLQESGPGLVKPSQSLSLTCTVTGYSITSDYAWNWIRQFPGNKLEWMGYISYSGSIRYNPSLKSRISITRDTSKNQFFLQLNSVTTEDTATYYCARGEITYYFDYWGQGTTLTVSS
VL: DIKMTQSPASLSMAIGEKVTIRCITTTDIDDDMNWYQQKPGEPPKLLISEGNTLRPGVPSRFSSSGYGTDFVFTIENMVSEDVADYYCLQSNDLPLTFGAGTKLELKR
notes: Variable regions of 19F6.2.3 on human IgG1 / kappa constant regions; also called anti-human ROR1 chimeric antibody 19F6-Chi
B14: 3D8-Chi (antibody, human IgG1, kappa, V domains shown)
VH: EVKLVESGGGLVKPGGSLKLSCAASGFTFSSYAMSWVRQTPEKRLEWVASINSGGSTYYPDSVKGRFTISRDNARNILYLQMSSLRSEDTAMYYCARVNYYGYGDYAMDYWGQGTSVTVSS
VL: DIKMTQSPSSMYASLGERVTITCKASQDINSYLSWFQQKPGKSPKTLIYRANRLVDGVPSRFSGSGSGQDYSLTISSLEYEDMGIYYCLQYDEFPYTFGGGTNLEIKR
notes: Variable regions of 3D8.2.3 on human IgG1 / kappa constant regions; also called anti-human ROR1 chimeric antibody 3D8-Chi

The binders below were run against T1, human ROR1 (full-length, on the cell surface) (human, UniProt Q01973 30-937) (assay: cell-based or functional assay).
T1 sequence (Q01973 30-937): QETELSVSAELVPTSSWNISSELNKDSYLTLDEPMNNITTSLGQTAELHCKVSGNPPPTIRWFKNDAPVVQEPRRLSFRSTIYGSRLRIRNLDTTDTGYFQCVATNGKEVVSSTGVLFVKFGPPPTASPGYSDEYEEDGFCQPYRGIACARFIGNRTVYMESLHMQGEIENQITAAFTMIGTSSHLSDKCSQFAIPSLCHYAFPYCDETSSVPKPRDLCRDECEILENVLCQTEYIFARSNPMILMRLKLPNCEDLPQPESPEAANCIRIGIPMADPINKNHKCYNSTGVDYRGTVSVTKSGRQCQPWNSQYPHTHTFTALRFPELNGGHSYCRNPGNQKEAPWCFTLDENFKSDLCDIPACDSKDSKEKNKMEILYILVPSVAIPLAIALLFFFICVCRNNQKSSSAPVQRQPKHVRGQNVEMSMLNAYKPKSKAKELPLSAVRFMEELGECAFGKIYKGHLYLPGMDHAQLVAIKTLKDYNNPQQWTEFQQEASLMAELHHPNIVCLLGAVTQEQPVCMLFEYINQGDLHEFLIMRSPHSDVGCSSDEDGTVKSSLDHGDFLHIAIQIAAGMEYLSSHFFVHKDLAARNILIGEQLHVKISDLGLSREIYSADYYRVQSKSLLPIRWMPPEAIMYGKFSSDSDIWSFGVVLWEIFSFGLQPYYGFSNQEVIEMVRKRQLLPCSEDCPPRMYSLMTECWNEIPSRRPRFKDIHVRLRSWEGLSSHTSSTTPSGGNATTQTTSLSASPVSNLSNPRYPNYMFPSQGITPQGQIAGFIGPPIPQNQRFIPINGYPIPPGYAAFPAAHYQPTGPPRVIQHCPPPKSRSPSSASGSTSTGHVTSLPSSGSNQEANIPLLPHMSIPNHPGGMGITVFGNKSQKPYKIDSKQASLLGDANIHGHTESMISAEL

Binder	internalization activity in N87 cells (pHrodo dye), fold over UC961 [fold]
B1	~7

Each binder was assayed against T1, human ROR1 (full-length, on the cell …) (assay: flow cytometry, Jeko-1 cells).

Binder	EC50 [nM]
B2	0.04
B3	0.07
B1	0.12
B4	0.12
B5	0.22
B6	0.17
B7	0.21
B8	0.17
B9	0.2
B10	0.18
B11	0.18
B12	0.15

What follows are binders tested against T1, human ROR1 (full-length, on the cell …) (assay: flow cytometry, HT-29 cells).
Method: (§1) The affinities of the purified anti-human ROR1 chimeric antibodies binding to the Ba/F3-ROR1, Jeko-1, HT-29 and A549 cells were analyzed by flow cytometry. The specific experimental steps were as follows: the Ba/F3-ROR1, Jeko-1, HT-29 and A549 cells were incubated with the purified chimeric antibodies of different concentration gradients on ice for 30 minutes, and the anti-ROR1 antibody UC961 with human IgG1 and the anti-TNP antibody were used as positive and negative controls respectively.

Binder	EC50 [nM]
B13	0.266
B14	0.463

Target: T1, human ROR1 (full-length, on the cell …)
Assay: flow cytometry, HT-29 cells
Remark: another data set of the same source

Binder	EC50 [nM]
B2	0.17
B3	0.33
B1	0.15
B4	0.1
B5	0.18
B6	0.11
B7	0.62
B8	0.75
B9	0.25
B10	0.09
B11	0.1
B12	0.78

The binders below were run against T1, human ROR1 (full-length, on the cell …) (assay: flow cytometry, A549 cells).
Method: as §1

Binder	EC50 [nM]
B13	0.087
B14	0.28

Target: T1, human ROR1 (full-length, on the cell …)
Assay: cell-based or functional assay
Remark: another data set of the same source

Binder	EC50 of ADCC killing of Ba/F3-ROR1 cells by NK92MI-mCD16a-hFceRI cells [nM]
B2	0.28
B3	0.19
B1	0.31

These binders were tested against T1, human ROR1 (full-length, on the cell …) (assay: flow cytometry, Ba/F3-ROR1 cells).

Binder	EC50 [nM]
B1	0.17
B4	0.62
B5	0.36
B6	0.43
B7	0.35
B8	0.29
B9	0.39
B10	0.44
B11	0.3
B12	0.35

Target: T1, human ROR1 (full-length, on the cell …)
Assay: flow cytometry, Ba/F3-ROR1 cells
Remark: another data set of the same source
Method: The affinities of the anti-human ROR1 humanized antibodies to Ba/F3-ROR1, Jeko-1, HT-29 and A549 cells were detected by flow cytometry. The specific experimental steps were as follows: the BaBF3-ROR1, Jeko-1, HT-29 and A549 cells were incubated with the purified humanized antibodies of different concentration gradients on ice for 30 minutes, and the anti-ROR1 antibody UC961 with human IgG1 and the anti-TNP antibody were used as positive and negative controls, respectively.

Binder	EC50 [nM]
B2	0.23
B3	0.75

Each binder was assayed against T2, human ROR1 ECD protein (human, UniProt Q01973 30-406) (assay: BLI (Octet), antibody on AHC sensor, ROR1 ECD in solution).
T2 construct: range 30-406; Expressed in Expi293 or ExpiCHO cells; also called Recombinant human ROR ECD
T2 sequence (Q01973 30-406): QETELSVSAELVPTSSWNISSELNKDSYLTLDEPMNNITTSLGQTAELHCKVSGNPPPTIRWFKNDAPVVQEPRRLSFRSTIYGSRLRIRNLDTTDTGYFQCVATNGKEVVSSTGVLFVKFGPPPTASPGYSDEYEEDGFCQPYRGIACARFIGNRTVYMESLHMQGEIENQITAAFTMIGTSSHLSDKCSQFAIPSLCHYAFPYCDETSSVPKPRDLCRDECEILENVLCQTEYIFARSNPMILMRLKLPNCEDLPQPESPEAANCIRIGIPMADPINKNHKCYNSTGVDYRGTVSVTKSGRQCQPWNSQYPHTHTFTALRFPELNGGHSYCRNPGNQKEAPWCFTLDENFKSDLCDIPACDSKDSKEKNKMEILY

Binder	fold stronger affinity than UC961 (by KD) [fold]
B13	34.6
B1	5.4
B14	2

Target: T1, human ROR1 (full-length, on the cell …)
Assay: flow cytometry, A549 cells
Remark: another data set of the same source

Binder	EC50 [nM]
B2	0.29
B3	0.23
B1	0.08
B4	0.12
B5	0.31
B6	0.16
B7	0.14
B8	0.47
B9	0.24
B10	0.09
B11	0.09
B12	0.25

Target: T1, human ROR1 (full-length, on the cell …)
Assay: flow cytometry, Ba/F3-ROR1 cells
Remark: another data set of the same source
Method: as §1

Binder	EC50 [nM]
B13	0.325
B14	0.62

These binders were tested against T2, human ROR1 ECD protein (assay: BLI (Octet), antibody on AHC sensor, ROR1 ECD in solution, 1:1 model).
Method: The dynamic affinities of humanized molecules 19F6-Hu35V1, 3D8-HuC24 and 38F8-Hu57 and positive control antibody UC961 to human ROR1 ECD protein were determined by Octet ForteBio method.

Binder	Kd [nM]	koff [s⁻¹]	kon [M⁻¹ s⁻¹]
B2	26.1	0.0153	586000
B3	10	0.00242	241000
B1	1.61	0.000863	538000

Target: T2, human ROR1 ECD protein
Assay: as above
Remark: another data set of the same source
Text: Octet ForteBio is widely used in the detection of antibody-antigen dynamic affinity. This method was used to determine the dynamic affinities of the candidate chimeric antibodies 3D8-Chi, 19F6-Chi and 38F8-Chi and the positive control antibody UC961 to human ROR1.

Binder	Kd [nM]	koff [s⁻¹]	kon [M⁻¹ s⁻¹]
B13	0.456	0.000514	1.13e+06
B14	8.09	0.00381	471000

Target: T1, human ROR1 (full-length, on the cell …)
Assay: flow cytometry, Jeko-1 cells
Remark: another data set of the same source
Method: as §1

Binder	EC50 [nM]
B13	0.271
B14	0.619

From patent US20240018237A1 (SICHUAN KELUN BIOTECH BIOPHARMACEUTICAL, published 2024)
